# Test results reported in publication PMC8748927.
# B1: A05 TCR (peptide)
# chain 1: CAEVLGGTSYGKLTF
# chain 2: CSASGRRGYGYTF
# Target: Mycobacterium tuberculosis cell wall sulfoglycolipid peptide on CD1b (human)
# Test: IFN-γ ELISPOT. CD4 clone of primary T cells transduced with the A05 TCR, with K562-CD1b. SGL was titrated from 1 µg/ml to 10^-7 µg/ml. This EC50 is stated to be 100-fold lower than that of an A05-CD8 T cell clone.; full-length, on cells
# Conditions: chains alpha TRAV13-2 TRAJ52 CDR3:beta TRBV20-1 TRBJ1-2 CDR3
binder,measurement,value
B1,EC50 of peptide,0.6 ng/mL
